The target in test [1] is T1, FGFR3 (Homo sapiens, UniProt P22607). Description: Affinity to FGFR3 measured by FACS. It counts as binding. Background: Flow cytometry measures light scatter and fluorescence of single cells or particles in a stream.
For test [2], the target named is T1, FGFR3. Kind of test: FDCP-FGFR3 proliferation assay performed with FGF9. As to conditions: dimeric dHLX format. It counts as cell-based.

Residue numbers refer to the chain shown, from its start. Some results are limits rather than exact numbers.

Broadly, the Kd is the concentration at which binding is half-saturated. What is called IC50 is the concentration at which inhibition is half-maximal.

T1 sequence (P22607 23-806): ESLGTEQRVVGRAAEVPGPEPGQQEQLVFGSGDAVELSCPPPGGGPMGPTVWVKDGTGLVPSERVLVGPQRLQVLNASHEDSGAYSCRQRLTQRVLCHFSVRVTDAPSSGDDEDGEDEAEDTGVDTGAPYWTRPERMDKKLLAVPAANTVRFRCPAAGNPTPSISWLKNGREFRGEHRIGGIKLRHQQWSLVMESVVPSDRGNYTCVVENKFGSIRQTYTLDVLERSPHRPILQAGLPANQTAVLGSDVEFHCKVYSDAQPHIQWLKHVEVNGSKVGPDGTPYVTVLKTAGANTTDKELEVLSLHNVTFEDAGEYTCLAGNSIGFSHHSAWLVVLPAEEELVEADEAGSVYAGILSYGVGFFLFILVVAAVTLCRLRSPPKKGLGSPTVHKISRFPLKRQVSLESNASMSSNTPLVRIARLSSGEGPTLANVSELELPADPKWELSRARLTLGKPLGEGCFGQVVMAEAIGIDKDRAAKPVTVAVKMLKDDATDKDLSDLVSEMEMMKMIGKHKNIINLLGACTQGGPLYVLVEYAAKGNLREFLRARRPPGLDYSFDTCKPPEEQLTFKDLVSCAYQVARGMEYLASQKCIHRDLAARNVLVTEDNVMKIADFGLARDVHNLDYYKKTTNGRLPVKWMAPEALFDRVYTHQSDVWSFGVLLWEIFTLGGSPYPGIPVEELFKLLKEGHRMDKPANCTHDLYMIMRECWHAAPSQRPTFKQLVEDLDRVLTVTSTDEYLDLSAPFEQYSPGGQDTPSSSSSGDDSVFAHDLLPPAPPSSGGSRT

B1: PRO-002: HuCAL clone anti-FGFR3 antibody; VH-CDR3 SEQ ID NO:2, VL-CDR3 SEQ ID NO:11 (antibody, V domains shown)
VH: QVQLVQSGAEVKKPGASVKVSCKASGYTFTSYYMHWVRQAPGQGLEWMGWINPNSGGTNYAQKFQGRVTMTRDTSISTAYMELSSLRSEDTAVYYCARDFLGYEFDYWGQGTLVTVSS
VL: DIELTQPPSVSVAPGQTARISCSGDALGDKYASWYQQKPGQAPVLVIYDDSDRPSGIPERFSGSNSGNTATLTISGTQAEDEADYYCQSYDYSADYVFGGGTKLTVLGQ
Molecule B1 returned a Kd with FGFR3 [1] of 43 nM. In the test with FGFR3 [2], this molecule returned an IC50 of 360 nM.

B2: PRO-001: HuCAL clone anti-FGFR3 antibody; VH-CDR3 SEQ ID NO:1, VL-CDR3 SEQ ID NO:10; VH SEQ ID NO:19, VL SEQ ID NO:28 (antibody, V domains shown)
VH: QVQLQQSGPGLVKPSQTLSLTCAISGDSVSSNSAAWNWIRQSPGRGLEWLGRTYYRSKWYNDYAVSVKSRITINPDTSKNQFSLQLNSVTPEDTAVYYCARSYYPDFDYWGQGTLVTVSS
VL: B1 VL with Y92G, S93P, A94D, D95L, Y96W
modifications: SEQUENCE FROM PHAGE LIBRARY
As to B2, binding in the test with FGFR3 [1] was characterised by a dissociation constant (Kd) of 0.7 nM. The molecule also returned an IC50 in the test with FGFR3 [2] of 19 nM.

B3: PRO-054: HuCAL clone anti-FGFR3 antibody; VH-CDR3 SEQ ID NO:8, VL-CDR3 SEQ ID NO:17 (antibody, V domains shown)
VH: QVQLVQSGAEVKKPGASVKVSCKASGYTFTSYYMHWVRQAPGQGLEWMGWINPNSGGTNYAQKFQGRVTMTRDTSISTAYMELSSLRSEDTAVYYCARNMAYTNYQYVNMPHFDYWGQGTLVTVSS
VL: DIELTQPPSVSVAPGQTARISCSGDALGDKYASWYQQKPGQAPVLVIYDDSDRPSGIPERFSGSNSGNTATLTISGTQAEDEADYYCQSYDYFKLVFGGGTKLTVLGQ
As to B3, the IC50 in the test with FGFR3 [2] was determined as 45 nM. That is a double-digit nanomolar value.

B4: PRO-029: HuCAL clone anti-FGFR3 antibody; VH-CDR3 SEQ ID NO:7, VL-CDR3 SEQ ID NO:16 (antibody, V domains shown)
VH: QVQLVQSGAEVKKPGASVKVSCKASGYTFTSYYMHWVRQAPGQGLEWMGWINPNSGGTNYAQKFQGRVTMTRDTSISTAYMELSSLRSEDTAVYYCARTWQYSYFYYLDGGYYFDIWGQGTLVTVSS
VL: DIVLTQSPATLSLSPGERATLSCRASQSVSSSYLAWYQQKPGQAPRLLIYGASSRATGVPARFSGSGSGTDFTLTISSLEPEDFATYYCQQTNNAPVTFGQGTKVEIKRT
Turning to B4, the Kd in the test with FGFR3 [1] is < 1 nM. The IC50 with FGFR3 [2] was 20 nM.

B5: PRO-026: HuCAL clone anti-FGFR3 antibody; VH-CDR3 SEQ ID NO:6, VL-CDR3 SEQ ID NO:15 (antibody, V domains shown)
VH: QVQLVQSGAEVKKPGASVKVSCKASGYTFTSYYMHWVRQAPGQGLEWMGWINPNSGGTNYAQKFQGRVTMTRDTSISTAYMELSSLRSEDTAVYYCARGYWYAYFTYINYGYFDNWGQGTLVTVSS
VL: DIALTQPASVSGSPGQSITISCTGTSSDVGGYNYVSWYQQHPGKAPKLMIYDVSNRPSGVSNRFSGSKSGNTASLTISGLQAEDEADYYCQSYDNNSDVVFGGGTKLTVLGQ
In the test with FGFR3 [1], B5 showed a Kd of 1.4 nM. Also, in the test with FGFR3 [2], half-maximal inhibition (IC50) required 70 nM.

B6: PRO-055: HuCAL clone anti-FGFR3 antibody; VH-CDR3 SEQ ID NO:9, VL-CDR3 SEQ ID NO:18 (antibody, V domains shown)
VH: QVQLVQSGAEVKKPGASVKVSCKASGYTFTSYYMHWVRQAPGQGLEWMGWINPNSGGTNYAQKFQGRVTMTRDTSISTAYMELSSLRSEDTAVYYCARSMNSTMYWYLRRVLFDHWGQGTLVTVSS
VL: B5 VL with N95M, N96Y, S97N, D98Y, V99I
Take B6: the IC50 with FGFR3 [2] was determined as 34 nM. In other words, the double-digit nanomolar range.

Source of the values: patent US20080044419A1, “Treatment of T Cell Mediated Diseases by Inhibition of Fgfr3” (Fibron Ltd., priority 2003, published 2008).
